# Experiment: soluble on expression in E. coli; label from the status in PepcDB or PDB records
row,Sequence,soluble on expression in E. coli
1,MAHHHHHHMASTGNGGDSKAAASSLSPQKAGMVAPLTSAPPLTASTTSPSRLNSMRTANASASSKNNAPTGPSKKGGTAVKPSPEVGGKAAAGSSEPEPRASVNIDRQSKPNANSVNASNVADSTNAPSGKRPDHGRRGRRQECSSWFDAEKPAKADRPADKELNQNVQIVQDDIPDAEQAHREQAERAQRQKEKLARHISESPTGFQATLPRLNELDVTNSWDKLLRMMRSEFDMSCLTSCLARELDEDVAWNPEMLLVQLTSDMLDAAELQKDGGEAYVPVDASDIGQMTGGEVARRRKEKRSTTTAGGAAPAAGAAGGTEREPEKGSEKPAAASPTPAFQAAASKALRKQTTTDPAAAAPSSKKARDTDNAASTSTANSSSTRKRSAAGSRSGEASGGGGNNTNASSSTAKGDSADDTKSSKSTSLKAQVSKLFSK,not soluble
2,MAHHHHHHMPRNRSSGDDGGGGGKRGGRYAAVVEKGENAWKREWSSFMSGVNLKRLRDGTSGVTLKASADIERQLVAREAAPSSSSVAGEHDNGNDVEVNADGIPLGAIASHASFSYLFSSPAERRAERDARERAEAERRQAHKRELMAKKDPLSVLSKHQRAMHNAEQRGLQLDGMTRKERRSFLHLTVTEAQRKAEEQSREFKLHDLMDEKLAWYQQGPHPIDLIAEKLVRRKAEKKGKQLGLKYNYLAPHPSWLAKRAQRRRESLLVGLGKRLIFLERVTGEDKDDATTVPSSEVMVTDPLHHLTVPLSEMGRLLGQHGSASLSAAAAAAADADALVTAAAGSSSGDDIEDVKGADEEGAQHLGGEVDRGHRGDVTAARKKAVSASSAASSAGGCSSASPGKRASGEAGDDGVGNDAAQMRLPDVVVLQDPSRIATSLVRTVARDRTTALAIQQINRTTNFLSSGLVKGPSLRPEDALPGNGLSPRGLGAAPAAAALTPSPKSSMVAASMQDSAANSTKGAATTSRGASAAGRGRRRVRVADGEEEGGERRRHRRGADVSAGESQTKTSKPTASPSPRPRGARPPPTHTHELRDITSRSGPSKSQGGQVSSSKTKRQRANSRYD,not soluble
3,SLGSDADSAGSLIQPMQIPGIIMPGLRRLTIRDLLAQGRTSSNALEYVREEVFTNNADVVAEKALKPESDITFSKQTANVKTIAHWVQASRQVMDDAPMLQSYINNRLMYGLALKEEGQLLNGDGTGDNLEGLNKVATAYDTSLNATGDTRADIIAHAIYQVTESEFSASGIVLNPRDWHNIALLKDNEGRYIFGGPQAFTSNIMWGLPVVPTKAQAAGTFTVGGFDMASQVWDRMDATVEVSREDRDNFVKNMLTILCEERLALAHYRPTAIIKGTFSSGS,soluble
4,VQTGIDTLLPDYKKQLKGKRIGLITNPAGVNTSLKSSVDILYENPDIKLTALFGPEHGVRGDAQAGDEVGSYIDEKTGVPVYSLYGKTKKPTPEMLKNVDILMFDIQDVGTRFYTYIYTMAYAMEAAKENGIPFMVLDRPNPQGGNHIEGPILEPEYASFVGLYPIPLKHGMTIGELASLFNKEFSIDADLTVVKMKHWKRKMDFDDTRLPFVLPSPNMPTVESTFVYPATGLIEGTNISEGRGTTKPFELIGAPFIKSTELEETLNSLHLPGVTFRAASFTPTFSKHQGTLCHGVQLYVTDRDKFEAVKTGLSVIKTIHDLYPEDFEFLSTGSFDKLAGNGWIRTKIENGTSVENIINSYEKTLQQFSKTRKKYLIY,soluble
5,MGHHHHHHSHEPRVNTSALQKIAADMSNIIENLDTRELHFEGEEVDYDVSPSDPKIQEVYIPFSAIYNTQGFKEPNIQTYLSGCPIKAQVLEVERFTSTTRVPSINLYTIELTHGEFKWQVKRKFKHFQEFHRELLKYKAFIRIPIPTRRHTFRRQN,not soluble
6,MGSDKIHHHHHHMAQMTPSQEPQSAAEYDDRTTAAVKSVLIEIGQILGSFKGKFAIIGGAVPWLLLANEDMPHVGTLDVDVGLDAEALGDGEYATLVGALQGHGYAQREGLRRFQLVRQVPARDGGEAIDVVVDFLMPRDAEIVRNNPPLISDFAVQRADGADLAMRFYQLVAVAGSMPDGGTNRVEIAVCSIPALLAMKGHALAGRYKQKDAYDIYYCVRNYPAGIEALAQECRPLLGHASGERGFLHIADKFDAFDGYGPTCVRRFVEDTQALGDRTPDQWQQDAFGQIDALLRAMALRG,not soluble
7,MAHHHHHHMPIPSPPPPMRFVPNGVGGGGARDLTAVKEPNFEVLETSSPVPARVIHNAPASAVPSGTQRPVEAPPSTHATGAQHHPKAVHSPPLACPALAMTSTPASSSSSSSSQQVAQLWQLVQDLTAENAVLQQRVRVLMEGETHDAILPGMLTAPSSPEETEALLLRVRRLEAALKVEAMEREALEVRLQAQEQVLTRLLRR,soluble
8,MAENKTINKEQNRTENNEIVIMNFSGIYKEQQFYRNHAEMQEDISWLEVQDLPGSNCYCDEEAKNRILDDIKNYTGNGIHFIDSGNYHYVSRLWLSKMEHPFRLLVFDNHTDMQLPAFGGLLSCGGWIAASLEEVPMLQEVILVGPDEEAYMQVEPEFQQKVQFLSREKLLAMTGEEKNTFFRNLRADLPMYISVDKDVLCTADASTTWSQGDMSLEKLQKFLEIVLQQQQILGMDICGECDPDACERNLLNDRANQKLLELWKKYFPQIRERRQDI,not soluble
9,MVPNDVFQKLLYDLFCMWHGVQRHYDPPIPDSEEQRMQKVKNLICKLLTEIDGRVNRIKQNNNHQRGQDFYEEWTMLTWNVLCITNRLQNSLSQVVVSNEDKMIYSRLNQALVELVNYSRDFLPFPSTNEMDPEYVMLRDKMNQTMMSLHGLYRQMNSAMYQTPDDVENFRIHLQTFGDDILVPCLEQYKTFCNKNCMALWQQVRLVQVERMRDQVKDQGCSIENLVSFYSNMTYVLAVLGARLQGFRYDLTVNKKFFNFDPVVHMSEAVFAALELLMSNCVLATEPSTSAILVTNNLFAMNCGALARGVVFKDFEIQVVSEETAEHIQSEMSRQRLLQHPAPIGNVPSAALLAMKPTTGTKRSNAASNSDSANNTAHKKSDVNSKESVIIYPVYNSKNRYWAATYPHLLCTTRQKGRQSIHSSYQDLSPSGTNSSASNDKNGSGKRPIFYFHIKATMFSPSGRFATAHTLSLPFTIATRRNQDCQVQRMMSSYTATIFWLYGCNTQDGLLLQWIDGGMHWDHFKHLFKQHFKLLKYKLQCPDCCSGQDGARVNGVQQIVTFKNVLCPHLRYECNSTNVRFSVWRGMLELLQIFHDTRNNVRKLWEMGFLMGFMEFEEVDNMLEKHKSALIMRLSFVTGGTICFTVKSLAHTLDPRSSRPIHLEPLDLKRLQQKCLKDYLRDIADAEKVKYILTANEEVINIESLLESLKELGVKPENPSESREISSNITHMGDIDTMQHIKFTAMRIAVVTCKVKPPSADQEENDANGLNRLQATLGTRDDDFLRDFVQLANAYGKSKQDLYEALDFINDQYQPGPIRKTSSIYDSSHHIPLAPAPIARNMGPTMISPPPAKVRPPAVDTYPRSSQFELVRSDSDHLPPSNTMMRVSCSPPKPPSQLPSPNQTTIPHMYNNGIPMIYEHHQQQRFDY,not soluble
10,MNRMDNDLLAIQEARILIENAREAQKALATFSQEKLDRIVERMAGEVVKYARELAMMSHEETGFGKWQDKYIKNIFASDFLCKKIRKMKVVGIIAEDKENQTLDVGVPVGVIVALLPSTNPVSTAIYKTLIAIKSGNAIVFSPHPKAKKTTRRVLEILVRTAEASGLPCGAIGYQRTQALEGTLGLMNHKDTALIIVTGVPKLVKAAYAAGKPTIYGGPGNGPAFIERSADIKQAVADIITSRTFDHGIVSASEQSVVAEECIADEVRQELRGNGGYFLSEEEAEQLGKLFLRPDGSVNPDIVGKSAVELARKIGITVSENTKVLISEQKFVSPTNPYAKEKLCPVLAFYVEKDWFNACEKCIELLLNDGRGHTLVIHSRNEQVIREFALKKPVSRVLVNTPATLGGIGGTTNLFPALTLGCGAVGGGFTSDNVSPLNLINIRKVGYGVRKLEDITCGVQAESVGSSESAGLTRLTGLNGSLCPGPGYPKERTQDLNELLETLLEQLLPYRNA,not soluble
11,AIAPGRKRKLAAKTAELAPEAGEGSESTSLVGSADASASTAAGVAHTEQQEMPSGGLHESFLESIPPAASFLEELAWVESLASPSYVAYLCQMRRFDDVVAQRRLTTLQRWRQDPAYRQHVSQPIALFFLEQLCSAEFREALRHPAVAALYERQVDLYRRCYGNLLNTGESRVLR,soluble
12,MSLSFKNVNLIYADIATDSAETPETVLTQDDLEKEFEFWEATSLGLFDYMRKSRSKGFVLSLSGGADSSACAIMVAEMIRKGLKELGLTAFLQKSNMETLFDLPALQHLPFEEQAKKITAVFLTTAYQSTRNSGDETYTSAKTLAESIGATFYNWSVDEEIEQYKATIENVIERPLTWEKDDITLQNIQARGRAPIIWMLTNVKQALLITTSNRSEGDVGYATMDGDTAGGIAPIAGVDKDFIRSWLRWAEKNRNQHGLHIVNKLAPTAELRPSEYTQTDERDLMPYDVLARIERKAIKERLSPVQVYTALLTEGPYTKNEFKYWVKKFFRLWSINQWKRERLAPSFHMDDFNIDPRSWYRFPILSSGFAKELNDLDQEGHHHHHH,not soluble
13,MSTLLPFPCEEKIPEGKYVLRTFEIKEGQVKEKLKDLNYEILASLSGVDLTFEKEEEWKKAKEILSDYVYTDRPESLEETLGRILKEKGFTLSTAESCTAGMLSSRIVNVPGSSEYFVGGFVVYSNDLKVKYLCVSEDTLKKYGAVSWQTCLEMTVGLKSNLGTDCGIAITGIAGPGGTLTKPQGLTYIGIFVKDKLTVIKRIFKGSRNENRFLSTQTAIFYLLKLLKR,soluble
14,MGQPIITRDAGRYFLTDRIRHEVDWWNTPQARGEEPPPVQKPVAPGAMVIPLPPPATWGIPPCSLADGIARRESRRRFRAVPLTPEELAFLLWATQGVRARLNEAAVLRTVPSAGCRHPFETYLAILSVTGIEPAVYRYLPLDHALVLEREVPDLAATVTAAAHGQRFAGEAAVTFVWTAIPARTEWRYAEASYKVIALDAGHVCQNLYLACEAIGAGTCAIAAYRQALADELLGVDGREEFTVYLAPVGKV,not soluble
15,MSQPCPHCGFQFNCICSLVPKLTSKHEILLLMHPNELTRDTNTGQLLQHCQLNVEQAIWDRKQPPAELLTRLANPSLYPVILFPSEESITLEHVEMQSQQQAKMPLYIILDATWQEARKMINKSRWLEGIPTMGLSALADSQYQLRRNQQQGNLCTFEVAAHLLGQLGEQDNQQQMHTFFTHYLALFQAEKSGHALKSSPRSLEAAALEHHHHHH,not soluble
16,MGSDKIHHHHHHMVNEKRLLEEFLELVQIDSETKHEAEICKVLKRKFSDLGVDVKEDDTMDITGHGAGNLICTLKGTKQTDTIYFTSHMDTVVPGNGVKPVVENGYVKTDGTTILGADDKAGLAAMFEAIKVLKEENIEHGTIEFIITVGEESGLIGAKALDRPMITASYGYALDSDGKVGNIIVAAPTQAKVRAAIFGKTAHAGVEPEKGISAITIASKAISKMPLGRIDEETTANIGRFEGGTQTNIVCDEVHILAEARSLVPEKMEAQVQKMKAAFEEAAADMGGRAEVEIEVMYPGFKYQDGDQVVEIAKKAAAKIGRPSELQTSGGGSDANVIAGHGIPTVNLAVGYEQIHTKNEKMPIEELVKTAEMVVAIIEEAAK,not soluble
17,MSEKPQQEEQEKPQSRRNSFAVIEFTPEVLDRCLKQVEFYFSEFNFPYDRFLRTTAEKNDGWVPISTIATFNRMKKYRPVDKVIEALRSSEILEVSADGENVKRRVPLDLTAARNARIEQNQRTLAVMNFPHEDVEASQIPELQENLEAFFKKLGEINQVRLRRDHRNKKFNGTVLVEFKTIPECEAFLKSYSNDDESNEILSYEGKKLSVLTKKQFDLQREASKSKNFSGRSRSFNGHKKKNLPKFPKNKKKNGKEESKEDSSAIADDDEEHKE,soluble
18,MSLQKMKSSRKFLEGEPNIVIRKGELQYKVMKKNKIDINQLQSLLRQAGSFSIQEVEYAILETNGMVSVLPKSDFDKPTNKDLQIPSKSVSLPITLIIDGEIVRDNLKEAGVDEQWLKQELKKKNIDKTEDVLFAEWHKNKPLYTVTYEQSKGHHHHHH,soluble

# Source: the DeepSol protein solubility set
